What was measured:
Format in all cases: biochemical
[1] = Reactions on alkanes, total turnovers (Table 18): propane
Description: (§1) Reactions on alkanes. Reactions with alkanes from pentane to decane were carried out at 3 mL-scale using 100 mM KPi pH 8.0 buffer containing 2% ethanol (to allow alkane solubilization) and purified protein. 2.5 mL KPi buffer were added with 60 μL of 90 mM alkane solution in ethanol (final conc.=1.8 mM), 150 μL enzyme solution at 1 μM (final conc.=50 nM), and 300 μL NADPH regeneration solution (100 units/mL isocitrate dehydrogenase, 70 mg/mL isocitrate, 1.5 mg/ml NADP^+). Vials were sealed and stirred for 24 hours at 4° C. 1 mL-aliquot of the reaction was removed, added with 10 μl internal standard (25 mM 1-bromohexane in ethanol), and extracted with 200 μl chloroform (30 sec vortexing, 1 min centrifugation at 10000 g). The organic phase was removed and analyzed by gas chromatography. Reactions with ethane, propane, and butane were carried out as described for longer alkanes with the only difference that alkane-saturated KPi buffer was used. Propane reactions with variants from HL5 and L9 libraries were performed on 1 mL-scale reaction using 20 nM enzyme to reduce oxygen limitation. Propane and butane reactions were analyzed by direct injection of reaction solution on the GC using 1-pentanol as internal standard. Ethane reaction products were functionalized (see below) and analyzed by GC using 1-butanol as internal standard. All measurements were performed in triplicate.
(§2) Products from alkane reactions were identified and quantified by gas chromatography using authentic standards and calibration curves with internal standards. For the reactions with alkanes from pentane to decane, GC analyses were carried out using a Shimadzu GC-17A gas chromatograph, Agilent HP5 column (30 m×0.32 mm×0.1 μm film), 1 μL injection, FID detector, and the following separation program: 250° C. inlet, 250° C. detector, 50° C. oven for 3 min, 5° C./min gradient to 100° C., 25° C./min gradient to 230° C., and 230° C. for 3 min. For butane and propane (TTN) reactions, GC analyses were carried out using a Hewlett-Packard 5890 Series II Plus gas chromatograph, Supelco SPB-1 column (60 m×0.52 mm×0.5 μm film), 0.5 μL injection, FID detector, and the following separation program: 250° C. inlet, 275° C. detector, 80° C. oven for 2 min, 10° C./min gradient to 110° C., 25° C./min gradient to 275° C., and 275° C. for 2.5 min. For ethane and propane (rate) reactions, analysis of reaction mixtures was carried out by derivatization to alkyl nitrites followed by GC-ECD analysis. For laurate, reaction product analysis was carried out by derivatization with N-methyl-N-trimethylsilylheptafluorobutyramide followed by extraction with hexane. Organic solutions were analyzed by FID-GC.
Because 35E11 was only marginally stable, the engineering strategy described herein (see below) involved an initial stabilization step followed by iterative rounds of mutagenesis and screening. Random, saturation and site-directed mutagenesis methods were used to create libraries of mutants (FIG. 35), which were screened for activity on a propane surrogate, dimethyl ether. Positives were confirmed in a re-screen and purified for further analysis. Reactions with purified enzymes were carried out in sealed vials in the presence of propane-saturated buffer and a cofactor regeneration system. Improvement in propane total turnover number-moles of propanol produced per mole of enzyme—was a selection criterion for taking a mutant to the next round.
TTNs for each variant-substrate pair were determined using standardized reaction conditions (identical enzyme and substrate concentration, incubation time, cofactor regeneration system) (Table 18). TTN values were used to assess performance because TTN is a cumulative measure of both catalytic and coupling efficiency and because mutants were selected based on improvement in this property. […]

[2] = Reactions on alkanes, total turnovers (Table 18): decane; conditions: decane (10 C atoms)
Description: as §1, §2
(§3) TTNs for each variant-substrate pair were determined using standardized reaction conditions (identical enzyme and substrate concentration, incubation time, cofactor regeneration system) (Table 18). TTN values were used to assess performance because TTN is a cumulative measure of both catalytic and coupling efficiency and because mutants were selected based on improvement in this property. To facilitate comparison among the variants, TTNs were normalized to the highest value in the series (MTN=Maximal Turnover Number) and plotted for the increasing-sized substrates (FIG. 38). A gradual shift of the enzyme's substrate preference during laboratory evolution is evident from these profiles. The marginal activity of wild-type BM3 on these substrates (MTN=150) is restricted to the long-chain alkanes, where it is a promiscuous function of BM3's high C12-C20 fatty acid hydroxylase activity. In the first evolutionary intermediates, substrate preference centers on medium-chain alkanes […], reflecting their selection for activity on octane. In 35E11, selected for activity on propane, preference still centers on C6-C8 alkanes but now extends towards the shorter ones, including propane. Propane activity becomes prevalent with the transition from variant ETS8 to 19A12. […]

[3] = Reactions on alkanes, total turnovers (Table 18): heptane; conditions: heptane (7 C atoms)
Description: as §1, §2, §3

[4] = Reactions on alkanes, total turnovers (Table 18): octane; conditions: octane (8 C atoms)
Description: as §1, §2, §3

[5] = Kinetic constants for n-alkanes: octane
Description: Rate measurements. Initial rates of product formation were determined at 25° C. in 100 mM KPi pH 8.0 buffer using purified protein (100 nM) and a substrate concentration of 1.6 mM. In a 5 mL-vial, 20 μL of alkane solution (in ethanol) were dissolved in 400 μL KPi buffer, to which 500 μL enzyme solution at 100-200 nM was added. Reaction was initiated by adding 100 μL of 5 mM NADPH solution, followed by stirring at 300 rpm for 1 minute, and quenched by adding 200 μL chloroform and stirring at 800 rpm for 10 sec. Solutions were transferred to an Eppendorf tube, to which internal standard (10 μL 25 mM 1-bromohexane in ethanol) was added. Tubes were vortexed for 10 sec and centrifuged for 30 sec at 10,000 g. Organic phase was removed and analyzed by GC. For propane, reactions were carried out in a 5 mL-scale using 100-400 nM purified enzyme, propane-saturated buffer (propane concentration≈1.6 mM) and a final NADPH concentration of 500 μM. Reactions were stopped by addition of 200 μL H2SO4 conc. and analyzed by derivatization to alkyl nitrites followed by GC-ECD analysis as described below.
as §2
To further investigate the evolution of substrate specificity, kinetic constants for the C5 to C8 alkanes were determined from Michaelis-Menten plots (Table 19). The preference of 35E11 and its evolutionary predecessors for medium-chain alkanes is indicated by their high C8/C5 specificities ((kcat/Km)8/(kcat/Km)5˜100), where Km appears to be the major contributing factor. C8/C5 specificity decreases to ˜5 in the immediate precursors of P450PMO and then switches altogether to the smaller alkane, becoming 0.4 in P450PMO. In P450PMO, catalytic efficiency is highest on propane and decreases along the alkane series, driven by decreasing kcat.

[6] = TTN normalized to the highest value of the variant's series
[7] = total turnovers, standardized reaction conditions

B1: P450PMO: P450 BM-3 variant, SEQ ID NO:125; 7-7 plus G443A and D698G; propane monooxygenase (protein)
chain: TIKEMPQPKTFGELKNLPLLNTDKPVQALMKIADELGEIFKFEAPGCVTRYISSQRLIKEACDESRFDKNLSQELKFFRDFGGDGLFTSWTHEINWKKAHNILLPSFSQQAMKGYHAMMVDIAVQLVQKWERLNADEHIEVSEDMTRLTLDTIGLCGFNYRFNSFYRDQPHPFIISMVRALDEVMNKPQRANPDDPAYDENKRQCQEDIKVMNDLVDKIIADRKARGEQSDDLLTQMLNGKDPETGEPLDDGNISYQIITFLIAGHETTSGLLSFALYFLVKNPHVLQKVVEEAARVLVDPVPSYKQVKQLKYVGMVLNEALRLWPTFPAFSLYAKEDTVLGGEYPLEKGDEVMVLIPQLHRDKTVWGDDVEEFRPERFENPSAIPQHAFKPFGNGQRACIGQQFALHEATLVLGMMLKHFDFEDHTNYELDIKETLTLKPEAFVVKAKSKKIPLGGIPSPSTGQSAKKVRKKAENAHNTPLLVLYGSNMGTAEGTARDLADIAMSKGFAPQVATLDSHAGNLPREGAVLIVTASYNGHPPDNAKQFVDWLDQASADEVKGVRYSVFGCGDKNWATTYQKVPAFIDETLAAKGAENIADRGEADASDDFEGTYEEWREHMWSDVAAYFNLDIENSEDNKSTLSLQFVDSAADMPLAKMHGAFSTNVVASKELQQPGSARSTRHLEIELPKEASYQEGGHLGVIPRNYEGTVNRVTARFGLDASQQIRLEAEEEKLAHLPLAKTVSVEELLQYVELQDPVTRTQLRAMAAKTVCPPHKVELEALLEKQAYKEQVLAKRLTMLELLEKYPACEMKFSEFIALLPSIRPRYYSISSSPRVDEKQASITVSVVSGEAWSGYGEYKGIASNYLAELQEGDTITCFISTPQSEFTLPKDPETPLIMVGPGTGVAPFRGFVQARKQLKEQGQSLGEAHLYFGCRSPHEDYLYQEELENAQSEGIITLHTAFSRMPNQPKTYVQHVMEQDGKKLIELLDQGAHFYICGDGSQMAPAVEATLMKSYADVHQVSEADARLWLQQLEEKGRYAKDVWAG
modifications: Mutant P450PMO protein sequence
notes: 7-7 plus G443A and D698G; propane monooxygenase
Question: For B1, which “increase of total turnovers on propane” value ([1]; compared to 139-3) is on record?
Answer: Its value is 100 fold.

Question: And the “% rel. act.” value ([1]; propane (3 C atoms), TTN normalized to the highest value of the variant's series)?
Answer: The value was 100.0%.

Question: What about the TTN ([1]; propane (3 C atoms), total turnovers, standardized reaction conditions) of the same molecule?
Answer: Its TTN is 20500 ± 1900.

Question: And the “turnovers on propane (TTN)” value ([1]; propane-saturated buffer, cofactor regeneration system)?
Answer: Its value is “more than 20,000”.

Question: What about the “% rel. act.” value [2, 6] of the same molecule?
Answer: The value was 5.3%.

Question: And the TTN [2, 7]?
Answer: Its TTN is 1080 ± 30.

Question: What about the “% rel. act.” value [3, 6] of the same molecule?
Answer: Its value is 14.6%.

Question: What about the TTN [3, 7] of the same molecule?
Answer: Its TTN is 2990 ± 165.

Question: What about the “% rel. act.” value [4, 6] of the same molecule?
Answer: Its value is 9.2%.

Question: What about the TTN [4, 7] of the same molecule?
Answer: Its TTN is 1880 ± 60.

Question: And the Km [5]?
Answer: The Km was 185 ± 40 µM.

Question: And the kcat [5]?
Answer: The kcat was 0.217 ± 0.067 s⁻¹.

From patent US12258605B2, “Alkane oxidation by modified hydroxylases” (The California Institute of Technology, priority 2005, dated 2025)
